Consider one molecule from patent US20200040088A1 (Kyowa Kirin, published 2020).

Assay [1] deals with T1, Mouse IL-5Rα-Fc (R&D Systems Inc.) (mouse, UniProt P21183 18-339).
T1 construct: Bought reagent; not shown: Fc part
T1 sequence (looked up): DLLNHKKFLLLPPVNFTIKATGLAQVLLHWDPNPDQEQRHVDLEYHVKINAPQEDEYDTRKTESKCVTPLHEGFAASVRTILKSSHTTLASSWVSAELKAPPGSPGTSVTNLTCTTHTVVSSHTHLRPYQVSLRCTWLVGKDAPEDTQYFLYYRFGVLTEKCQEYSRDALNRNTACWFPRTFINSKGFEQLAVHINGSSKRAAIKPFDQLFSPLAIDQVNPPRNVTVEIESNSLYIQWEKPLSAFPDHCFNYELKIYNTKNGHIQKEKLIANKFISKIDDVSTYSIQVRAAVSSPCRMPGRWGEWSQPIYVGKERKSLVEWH
Kind of assay: SPR, Biacore T200; mouse IL-5Rα-Fc captured on anti-human IgG (Fc); cm1B12 as analyte; bivalent analyte model. On the procedure:
The binding activity of the cm1B12 antibody to mouse IL-5Rα-Fc was analyzed using Biacore T200. Anti-Human IgG (Fc) was immobilized at about 9000 RU onto CM5 sensor chip (GE Healthcare) using Human Antibody Capture Kit (GE Healthcare) according to the attached instruction. Mouse IL-5Rα-Fc (R&D Systems Inc.) dissolved at 1 μg/mL in HBS-EP(+) was captured as a ligand at a flow rate of 30 μL/min for 20 seconds. Then, the cm1B12 antibody serially diluted into concentrations of 1000.00, 333.33, 111.11, 37.04, 12.35, and 4.12 ng/mL was added thereto as an analyte by the multicycle method.
The operation was performed under conditions involving a flow rate of 30 μL/min, and a contact time and a dissociation time of 120 seconds and 600 seconds, respectively. The analysis was carried out using Biacore T200 Evaluation software in the Surface bound and Bivalent Analyte mode.
A general note: In SPR one partner is held on a chip, and binding of the other changes the refractive index at the surface.

In assay [2] the target is T2, mouse IL-5Rα expressed on cells (Ba/F3 cells stably expressing mouse IL-5Rα); Expi293F cells transiently … (mouse, UniProt P21183 18-415).
T2 construct: whole, on cells; also called IL-5Rα-expressing Ba/F3 cells; IL5Ra-expressing Ba/F3 cells
T2 sequence (looked up): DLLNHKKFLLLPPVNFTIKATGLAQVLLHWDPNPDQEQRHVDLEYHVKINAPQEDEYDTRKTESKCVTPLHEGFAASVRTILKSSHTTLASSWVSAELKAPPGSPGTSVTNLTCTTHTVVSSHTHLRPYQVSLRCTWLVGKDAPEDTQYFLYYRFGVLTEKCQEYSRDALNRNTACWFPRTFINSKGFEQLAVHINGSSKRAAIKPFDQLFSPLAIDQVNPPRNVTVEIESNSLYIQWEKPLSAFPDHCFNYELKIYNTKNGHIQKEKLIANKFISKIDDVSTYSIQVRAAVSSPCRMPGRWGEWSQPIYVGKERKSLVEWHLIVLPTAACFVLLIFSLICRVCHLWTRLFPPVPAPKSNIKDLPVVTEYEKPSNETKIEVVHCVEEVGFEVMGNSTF
Nature of the assay: flow cytometry on mouse IL-5Rα-expressing Ba/F3 cells, detected with Alexa Fluor 647 goat anti-mouse IgG (H+L), geometric mean fluorescence; parental Ba/F3 cells as negative control. The protocol: Ba/F3 cells or IL-5Rα-expressing Ba/F3 cells were suspended at a cell density of 1×10⁶ cells/mL in FACS buffer 1. The cell suspension was inoculated at 100 μL/well ([…]) to a 96-well U-form plate. The cm1B12 antibody was diluted into final concentrations of 0.0003, 0.001, 0.003, 0.01, 0.03, 0.1, 0.3, 1, 3, and 10 μg/mL with FACS buffer 1, added at 100 μL/well, and reacted for 1 hour on ice. After washing with FACS buffer 1, Alexa Fluor® 647 Goat anti-mouse IgG (H+L) (Life Technologies Corp.) diluted into 5 μg/mL with FACS buffer 1 was added at 100 μL/well and reacted for 1 hour on ice. After washing with FACS buffer 1, the fluorescence intensity (geometric mean) was measured using a flow cytometer Canto II (Becton, Dickinson and Company).

One may read the koff as the first-order rate constant of dissociation. One may read the kon as the second-order rate constant of association. One may read the EC50 (read off the curve) as the midpoint of the concentration-response curve.

B1: rat/mouse chimera type 1B12 antibody (antibody, V domains shown)
VH: VQLVESDGGLVQPGRSLKLSCAASGFTFSDFYMAWVRQAPTKGLEWVATISYDGSSAYYRDSVKGRFTISRDNAKSTLYLQMDSLSSEDTATYYCARHDGYYPFDYWGQGVMVTVSS
VL: DIRMTQSPASLSASLGETVNIECLASEDIYSDLAWYQQKPGKSPQLLIYDANSLQNGVPSRFSGSGSGTQYSLKINSLQSEDVATYFCQQYNNYWTFGGGTKLELK
notes: also called cm1B12 antibody; cm1B12
In assay [1], B1 displayed a Kd of 0.0317 nM, a koff of 0.000126 s⁻¹ and a kon of 4.1e+06 M⁻¹ s⁻¹. In addition, in assay [2], the “EC50 (read off the curve)” value was ~0.05 µg/mL.
